The values below come from article PMC5519978 (2017).

In general, Kd refers to the equilibrium constant for the complex coming apart.

Sequences and labels used below:
B1: hBRM-B BRD (human BRM bromodomain, short splice isoform, residues 1379-1399 and 1418-1508) (domain or fragment)
chain: NPPKLTKQMNAIIDTVINYKDSSGRQLSEVFIQLPSRKELPEYYELIRKPVDFKKIKERIRNHKYRSLGDLEKDVMLLCHNAQTFNLEGSQIYEDSIVLQSVFKSARQKIAK
modifications: 15N-labelled

One assay has as its target H3(23-34). Kind of assay: NMR.
Assay [1] has as its target B1. The experiment in a line: NMR.
The target of assay [2] is T1, hBRM-A AT-BRD (AT-hook and bromodomain of human BRM, long isoform, residues 1358-1508) (human, UniProt P51531 1358-1508, 15N-labelled).
T1 chain: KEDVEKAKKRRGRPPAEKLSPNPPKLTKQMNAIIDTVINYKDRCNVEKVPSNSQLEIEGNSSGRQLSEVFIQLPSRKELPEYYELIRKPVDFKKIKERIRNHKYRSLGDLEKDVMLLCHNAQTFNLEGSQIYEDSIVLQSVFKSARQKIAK
Kind of assay: NMR.

Assay [3] concerns the target T2, BRG1 AT-BRD (AT-hook and bromodomain of human BRG1, residues 1434-1569), wild type (human, UniProt P51532 1434-1569).
T2 chain: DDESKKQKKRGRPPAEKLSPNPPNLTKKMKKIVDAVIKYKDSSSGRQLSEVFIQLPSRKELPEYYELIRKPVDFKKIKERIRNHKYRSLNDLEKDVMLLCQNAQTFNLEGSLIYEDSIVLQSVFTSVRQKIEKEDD
The experiment in a line: NMR.

For assay [4], the target named is T3, hBRM-B AT-BRD (AT-hook and bromodomain of human BRM, short isoform, residues 1358-1399 and 1418-1508) (human, UniProt P51531 1358-1399; P51531 1418-1508, 15N-labelled).
T3 chain: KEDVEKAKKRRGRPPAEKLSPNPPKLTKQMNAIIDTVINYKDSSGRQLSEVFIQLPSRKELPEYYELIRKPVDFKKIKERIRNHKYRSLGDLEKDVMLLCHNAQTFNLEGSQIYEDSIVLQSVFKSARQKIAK
The experiment in a line: NMR; pre-bound to DNAI.

For assay [5], the target named is T3, hBRM-B AT-BRD (AT-hook and bromodomain …). Kind of assay: NMR.
Assay [6] addresses T4, hBRM-A BRD (human BRM bromodomain, long splice isoform, residues 1379-1508) (human, UniProt P51531 1379-1508, 15N-labelled).
T4 chain: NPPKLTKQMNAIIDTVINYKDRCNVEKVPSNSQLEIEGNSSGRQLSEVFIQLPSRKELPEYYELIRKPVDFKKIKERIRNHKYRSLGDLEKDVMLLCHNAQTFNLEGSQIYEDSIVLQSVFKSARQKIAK
The experiment in a line: NMR.

Assay [7] concerns the target T3, hBRM-B AT-BRD (AT-hook and bromodomain …). The experiment in a line: NMR; Kd,obs, AT-BRD pre-bound to DNAI.

No end group written: not given here.

In turn, B1 returned a Kd in the assay with H3(23-34) of more than 16 mM.
AKRHRK(Ac)VLRDN [H4(15-25)K20ac histone peptide] gave a dissociation constant (Kd) in assay [1] of 2.4 mM.
Take KAARK(Ac)SAPATGG [H3(23-34)K27ac histone peptide]: the Kd is more than 7 mM in assay [1], more than 35000 µM in assay [2] and more than 3000 µM in assay [3].
With KSTGGK(Ac)APRKQ [H3(9-19)K14ac histone peptide], the equilibrium dissociation constant (Kd) was 1.12 mM in assay [4]; 760 µM in assay [5]; 880 µM in assay [6]; 810 µM in assay [2]; 940 µM in assay [3]; 1.12 mM in assay [7].
QTARKSTGGKAPRKQLATK [H3(5-23) histone peptide, unmodified]: in assay [1], the Kd was more than 7 mM.
Still for that read-out and setting: for KQLATK(Ac)AARKS [H3(18-28)K23ac histone peptide] the value was 3.5 mM.
